Values quoted from earlier work, collected in patent publication US20030166570A1, “Peptide and its use in the treatment of hyperpigmentation conditions” (priority 2001, published 2003).
Ends that are not written are not given here.

Biological target: MC-1 receptor (Homo sapiens, UniProt Q01726)
Conditions: rank order; physiologic range for signal transduction

Sequence of MC-1 receptor (Q01726 whole entry): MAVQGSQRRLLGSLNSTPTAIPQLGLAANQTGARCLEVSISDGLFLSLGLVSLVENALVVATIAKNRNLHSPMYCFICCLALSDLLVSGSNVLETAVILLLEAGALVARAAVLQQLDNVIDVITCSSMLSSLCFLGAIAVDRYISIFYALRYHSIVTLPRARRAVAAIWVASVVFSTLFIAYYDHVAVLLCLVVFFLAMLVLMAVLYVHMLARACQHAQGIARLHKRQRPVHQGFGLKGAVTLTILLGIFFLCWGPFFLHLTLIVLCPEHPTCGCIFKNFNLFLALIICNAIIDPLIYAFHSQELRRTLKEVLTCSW

Substance | relative affinities for the MC-1 receptor and stimulation of cAMP
ACTH: 39-mer polypeptide hormone expressed in skin melanocytes and keratinocytes, derived from POMC (SYSMEHFRWGKPVGKKRRPVKVYPNGAEDESAEAFPLEF-NH2; UniProt P01189 138-176, looked up) | ACTH 1-17=α-MSH>ACTH
Ac-Ser^1-Tyr^2-Ser^3-Met^4-Glu^5-His^6-Phe^7-Arg^8-Trp^9-Gly^10-Lys^11-Pro^12-Val^13-NH2 [α-MSH] | ACTH 1-17=α-MSH>ACTH
ACTH 1-10: peptide fragment defined by residues 1-10 of ACTH | no activity
